Reference: patent US20030078191A1 (published 2003)

T1: B42-FtsZ fusion (pB42-FtsZ, SHp256) (Escherichia coli, UniProt P0A9A6 1-383)
T1 construct: Yeast two-hybrid prey; entire FtsZ gene cloned into pB42
T1 sequence: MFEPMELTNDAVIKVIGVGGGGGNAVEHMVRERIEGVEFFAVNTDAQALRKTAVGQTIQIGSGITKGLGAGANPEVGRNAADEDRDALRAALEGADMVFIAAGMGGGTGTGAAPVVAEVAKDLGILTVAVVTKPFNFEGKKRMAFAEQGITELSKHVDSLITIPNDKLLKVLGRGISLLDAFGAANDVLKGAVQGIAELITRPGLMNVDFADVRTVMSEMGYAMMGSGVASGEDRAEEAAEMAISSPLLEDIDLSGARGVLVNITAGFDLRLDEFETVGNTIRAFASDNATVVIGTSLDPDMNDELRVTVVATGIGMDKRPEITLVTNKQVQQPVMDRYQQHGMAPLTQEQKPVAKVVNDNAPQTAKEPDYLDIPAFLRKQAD

T2: Gal4 activation domain alone (pGAD424 vector, no fusion) (UniProt P04386 768-881)
T2 sequence (looked up): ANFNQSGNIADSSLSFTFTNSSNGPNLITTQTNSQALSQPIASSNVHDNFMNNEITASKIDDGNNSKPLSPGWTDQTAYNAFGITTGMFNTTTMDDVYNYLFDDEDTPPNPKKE

T3: Gal4ad-FtsA fusion (UniProt P0ABH0 1-420)
T3 sequence: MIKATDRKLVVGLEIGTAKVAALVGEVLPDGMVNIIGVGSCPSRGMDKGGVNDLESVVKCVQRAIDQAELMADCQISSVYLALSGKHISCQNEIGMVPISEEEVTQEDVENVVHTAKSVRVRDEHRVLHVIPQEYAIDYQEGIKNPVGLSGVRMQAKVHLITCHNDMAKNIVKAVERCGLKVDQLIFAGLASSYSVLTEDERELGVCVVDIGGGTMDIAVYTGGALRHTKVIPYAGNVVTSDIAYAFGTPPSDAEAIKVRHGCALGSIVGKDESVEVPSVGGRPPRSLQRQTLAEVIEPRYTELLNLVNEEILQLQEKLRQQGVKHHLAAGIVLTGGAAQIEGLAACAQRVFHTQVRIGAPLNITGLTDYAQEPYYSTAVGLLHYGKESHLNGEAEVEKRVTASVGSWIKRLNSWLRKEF


Tests used:
[1] = molecular target: T1, B42-FtsZ fusion (pB42-FtsZ, SHp256); assay: yeast two-hybrid (LexA fusion x B42 fusion), growth on plates without histidine
[2] = molecular target: T1, B42-FtsZ fusion (pB42-FtsZ, SHp256); assay: yeast two-hybrid (LexA/B42), LEU2 and lacZ reporters, haploids and diploids
[3] = molecular target: Gal4ad-ZipA(185-302) fusion (pGAD424 fusion) (Escherichia coli); assay: cell-based or functional assay
[4] = molecular target: Gal4ad-ZipA(62-328) fusion (pGAD424 fusion) (Escherichia coli); assay: cell-based or functional assay
[5] = molecular target: T2, Gal4 activation domain alone (pGAD424 …); assay: cell-based or functional assay
[6] = molecular target: Gal4ad-ZipA(35-185) fusion (pGAD424 fusion) (Escherichia coli); assay: cell-based or functional assay
[7] = molecular target: Gal4ad-ZipA(35-284) fusion (pGAD424 fusion) (Escherichia coli); assay: cell-based or functional assay
[8] = molecular target: Gal4ad-ZipA(185-328) fusion (pGAD424 fusion) (Escherichia coli, UniProt P77173 185-328); assay: cell-based or functional assay
Gal4ad-FtsA fusion = molecular target: T3, Gal4ad-FtsA fusion; assay: yeast two-hybrid, Gal4 system

Row | Binder | binding result [1] | binding result [2] | beta-galactosidase (lacZ reporter) activity, MUG fluorescence, yeast two-hybrid [3] [units] | beta-galactosidase (lacZ reporter) activity, MUG fluorescence, yeast two-hybrid [4] [units] | beta-galactosidase (lacZ reporter) activity, MUG fluorescence, yeast two-hybrid [5] [units] | beta-galactosidase (lacZ reporter) activity, MUG fluorescence, yeast two-hybrid [6] [units] | beta-galactosidase (lacZ reporter) activity, MUG fluorescence, yeast two-hybrid [7] [units] | beta-galactosidase (lacZ reporter) activity, MUG fluorescence, yeast two-hybrid [8] [units] | binding result (Gal4ad-FtsA fusion)
1 | LexA-OrfE fusion (kil as a fusion to the LexA DNA-binding protein) (other) MKALTARQQEVFDLIRDHISQTGMPPTRAEIAQRLGFRSPNAAEEHLKALARKGVIEIVSGASRGIRLLQEEEEGLPLVGRVAAGEPLLAQQHIEGHYQVDPSLFKPNADFLLRVSGMSMKDIGIMDGDLLAVHKTQDVRNGQVVVARIDDEVTVKRLKKQGNKVELLPENSEFKPIVVDLRQQSFTIEGLAVGVIRNGDWLMIAHHFGTDEIPRQCVTPGDYVLHEGRTYIASANNIKKRKLYIRNLTTKTFITDRMIKVFLGRDGLPVKAESW | no binding |  |  |  |  |  |  |  | 
2 | LexA alone (pLexA vector, SHp40) (other) MKALTARQQEVFDLIRDHISQTGMPPTRAEIAQRLGFRSPNAAEEHLKALARKGVIEIVSGASRGIRLLQEEEEGLPLVGRVAAGEPLLAQQHIEGHYQVDPSLFKPNADFLLRVSGMSMKDIGIMDGDLLAVHKTQDVRNGQVVVARIDDEVTVKRLKKQGNKVELLPENSEFKPIVVDLRQQSFTIEGLAVGVIRNGDWL |  | no binding |  |  |  |  |  |  | 
3 | Gal4bd-FtsZ(311-383) fusion (pAS2-1-FtsZ(311-383), SHp102) (other) MKLLSSIEQACDICRLKKLKCSKEKPKCAKCLKNNWECRYSPKTKRSPLTRAHLTEVESRLERLEQLFLLIFPREDLDMILKMDSLQDIKALLTGLFVQDNVNKDAVTDRLASVETDMPLTLRQHRISATSSSEESSNKGQRQLTVSVATGIGMDKRPEITLVTNKQVQQPVMDRYQQHGMAPLTQEQKPVAKVVNDNAPQTAKEPDYLDIPAFLRKQAD |  |  | 828 | 7430 | 997 | 971 | 8620 | 2630 | 
4 | Gal4bd-OrfE fusion (pAS2-1 fusion of kil) (other, also called Gal4bd-Kil) MKLLSSIEQACDICRLKKLKCSKEKPKCAKCLKNNWECRYSPKTKRSPLTRAHLTEVESRLERLEQLFLLIFPREDLDMILKMDSLQDIKALLTGLFVQDNVNKDAVTDRLASVETDMPLTLRQHRISATSSSEESSNKGQRQLTVSMIAHHFGTDEIPRQCVTPGDYVLHEGRTYIASANNIKKRKLYIRNLTTKTFITDRMIKVFLGRDGLPVKAESW |  |  | 721 | 8530 | 1230 | 1140 | 7580 | 1910 | no binding
